Assay results from patent US20260242478A1 (published 2026).

What was measured:
PSMA Fab [1] = target: T1, PSMA Fab; test: clonal phage ELISA on captured PSMA Fab, wells pre-incubated with PSMA antigen as competitor
T1 construct: also called Anti-PSMA Fab; 006 PSMA Fab
Method: (§1) Clonal phage were harvested as crude supernatants and screened via standard ELISAs. […] Prior to the addition of clonal phage. wells were incubated with blocking buffer and PSMA antigen or blocking buffer alone. Without washing or aspirating, clonal phage supernatants were then added to the wells and incubated for a short time. Wells were then washed followed by detection of bound phage using a horse radish conjugated anti-M13 antibody.

PSMA Fab [2] = target: T1, PSMA Fab; test: clonal phage ELISA on biotinylated PSMA Fab captured on neutravidin plates, anti-M13 HRP detection;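 also: crude clonal phage supernatants tested, before phage were added, wells were pretreated with PSMA antigen in blocking buffer or with blocking buffer only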
Method: as §1

Anti-PSMA Fab = target: T2, Anti-PSMA Fab; test: phage ELISA; biotinylated PSMA Fab on neutravidin plate, clonal phage supernatant, anti-M13 HRP detection;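 also: wells preincubated with PSMA antigen in blocking buffer or with blocking buffer only before clonal phage were added for a short incubation, then bound phage detected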
T2 construct: In the phage ELISA the PSMA Fab was biotinylated and captured on neutravidin coated plates; also called 006 PSMA Fab
Method: as §1

PSMA Fab [3] = target: T3, PSMA Fab (biotinylated (site not stated)); test: as above
T3 construct: Biotinylated PSMA Fab captured on neutravidin coated plates in the phage ELISA; also called Anti-PSMA Fab; 006 PSMA Fab

PSMA Fab [4] = target: T3, PSMA Fab; test: phage ELISA; biotinylated PSMA Fab on neutravidin plate pre-incubated with PSMA antigen as competitor, anti-M13 HRP detection;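 also: crude clonal phage supernatants tested, compared against control wells pre-incubated with blocking buffer only, without PSMA antigen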
Method: as §1

PSMA Fab (006 PSMA Fab) [5] = target: T4, PSMA Fab (006 PSMA Fab) (biotinylated (site not stated)); test: clonal phage ELISA on plate-captured biotinylated PSMA Fab, blocking buffer alone, anti-M13 HRP detection
T4 construct: also called Anti-PSMA Fab

PSMA Fab (006 PSMA Fab) [6] = target: T4, PSMA Fab (006 PSMA Fab); test: clonal phage ELISA on plate-captured biotinylated PSMA Fab pre-incubated with PSMA antigen as competitor, anti-M13 HRP detection
Method: as §1

Binder: IEKQCVPQWMCDGF (tested as crude phage supernatant) [Phage-3880]
- phage binding ELISA signal (PSMA Fab [1]): 0.0745
- phage binding ELISA signal (PSMA Fab [2]): 1.13

Binder: NAGYCVPTWMCDGF [Phage-3864]
- Phage binding ELISA signal, Anti-PSMA Fab (Anti-PSMA Fab): 1.17

Binder: NYVKCRPAWMCDGF [Phage-3855]
- Phage binding ELISA signal, Anti-PSMA Fab (PSMA Fab [3]): 1.18
- Phage binding ELISA signal, Anti-PSMA Fab in presence of PSMA (PSMA Fab [4]): 0.0759

Binder: SEMRCSPPWMCYGF [Phage-3841]
- Phage binding ELISA signal, Anti-PSMA Fab (PSMA Fab (006 PSMA Fab) [5]): 1.22
- Phage binding ELISA signal, Anti-PSMA Fab in presence of PSMA (PSMA Fab (006 PSMA Fab) [6]): 0.0822

Binder: PYTLCRPAWMCQAM [Phage-3868]
- Phage binding ELISA signal, Anti-PSMA Fab (Anti-PSMA Fab): 1.16

Binder: GSHYCVPQWMCGGF [Phage-3858]
- Phage binding ELISA signal, Anti-PSMA Fab (Anti-PSMA Fab): 1.17

Binder: DQRMCEPSWMCLGL [Phage-3852]
- Phage binding ELISA signal, Anti-PSMA Fab (PSMA Fab [3]): 1.19
- Phage binding ELISA signal, Anti-PSMA Fab in presence of PSMA (PSMA Fab [4]): 0.0704

Binder: TAPMCNPPWMCYGL (tested as crude phage supernatant) [Phage-3878]
- phage binding ELISA signal (PSMA Fab [1]): 0.0701
- phage binding ELISA signal (PSMA Fab [2]): 1.13

Binder: WQAWCEPPWMCLGF [Phage-3851]
- Phage binding ELISA signal, Anti-PSMA Fab (PSMA Fab [3]): 1.2
- Phage binding ELISA signal, Anti-PSMA Fab in presence of PSMA (PSMA Fab [4]): 0.0962

Binder: VSKMCSPVWMCEGF [Phage-3854]
- Phage binding ELISA signal, Anti-PSMA Fab (PSMA Fab [3]): 1.19
- Phage binding ELISA signal, Anti-PSMA Fab in presence of PSMA (PSMA Fab [4]): 0.0928

Binder: YELACVPRWMCYGL [Phage-3856]
- Phage binding ELISA signal, Anti-PSMA Fab (Anti-PSMA Fab): 1.18

Binder: EHARCTPAWMCAGF [Phage-3859]
- Phage binding ELISA signal, Anti-PSMA Fab (Anti-PSMA Fab): 1.17

B1: Phage-3883 (peptide)
peptide: VDYVCRPSWMCSGI
notes: tested as crude phage supernatant; The number 3883 of the label stands in r4366
- phage binding ELISA signal (PSMA Fab [1]): 0.0618
- phage binding ELISA signal (PSMA Fab [2]): 1.12

Binder: EDALCVPQWMCSGF (tested as crude phage supernatant) [Phage-3877]
- phage binding ELISA signal (PSMA Fab [1]): 0.0648
- phage binding ELISA signal (PSMA Fab [2]): 1.14

Binder: GQGSCVPMWMCEGF [Phage-3866]
- Phage binding ELISA signal, Anti-PSMA Fab (Anti-PSMA Fab): 1.16

Binder: VVHLCTPNWMCNGF [Phage-3853]
- Phage binding ELISA signal, Anti-PSMA Fab (PSMA Fab [3]): 1.19
- Phage binding ELISA signal, Anti-PSMA Fab in presence of PSMA (PSMA Fab [4]): 0.0576

Binder: EPKECVPPWMCIGM [Phage-3850]
- Phage binding ELISA signal, Anti-PSMA Fab (PSMA Fab [3]): 1.21
- Phage binding ELISA signal, Anti-PSMA Fab in presence of PSMA (PSMA Fab [4]): 0.079

Binder: PSQMCVPTWMCVGF [Phage-3862]
- Phage binding ELISA signal, Anti-PSMA Fab (Anti-PSMA Fab): 1.17

Binder: VQIVCSPTWMCTGF [Phage-3861]
- Phage binding ELISA signal, Anti-PSMA Fab (Anti-PSMA Fab): 1.17

Binder: PFLACIPQWMCEVV [Phage-3843]
- Phage binding ELISA signal, Anti-PSMA Fab (PSMA Fab [3]): 1.22
- Phage binding ELISA signal, Anti-PSMA Fab in presence of PSMA (PSMA Fab [4]): 0.247

Binder: SDHLCIPRWMCVGF [Phage-3857]
- Phage binding ELISA signal, Anti-PSMA Fab (Anti-PSMA Fab): 1.18

Binder: LEIFCVPMWMCEGL [Phage-3869]
- Phage binding ELISA signal, Anti-PSMA Fab (Anti-PSMA Fab): 1.16

Binder: LQQLCVPNWMCVGF (tested as crude phage supernatant) [Phage-3873]
- phage binding ELISA signal (PSMA Fab [1]): 0.0902
- phage binding ELISA signal (PSMA Fab [2]): 1.15

Binder: STMLCSPSWMCFGF (tested as crude phage supernatant) [Phage-3872]
- phage binding ELISA signal (PSMA Fab [1]): 0.073
- phage binding ELISA signal (PSMA Fab [2]): 1.15

Binder: SNVMCRPSWMCAGF (tested as crude phage supernatant) [Phage-3876]
- phage binding ELISA signal (PSMA Fab [1]): 0.132
- phage binding ELISA signal (PSMA Fab [2]): 1.14

Binder: ELRLCVPHWMCDGF [Phage-3847]
- Phage binding ELISA signal, Anti-PSMA Fab (PSMA Fab [3]): 1.21
- Phage binding ELISA signal, Anti-PSMA Fab in presence of PSMA (PSMA Fab [4]): 0.0777

Binder: AVIMCEPSWMCEGF (tested as crude phage supernatant) [Phage-3870]
- phage binding ELISA signal (PSMA Fab [1]): 0.102
- phage binding ELISA signal (PSMA Fab [2]): 1.16

Binder: WDIRCSPEWMCIGL [Phage-3849]
- Phage binding ELISA signal, Anti-PSMA Fab (PSMA Fab [3]): 1.21
- Phage binding ELISA signal, Anti-PSMA Fab in presence of PSMA (PSMA Fab [4]): 0.0603

Binder: YDRLCSPPWMCSGF (tested as crude phage supernatant) [Phage-3874]
- phage binding ELISA signal (PSMA Fab [1]): 0.0629
- phage binding ELISA signal (PSMA Fab [2]): 1.15

Binder: MGVECKPLWMCTGL [Phage-3865]
- Phage binding ELISA signal, Anti-PSMA Fab (Anti-PSMA Fab): 1.16

Binder: SDMVCKPPWMCYGF [Phage-3844]
- Phage binding ELISA signal, Anti-PSMA Fab (PSMA Fab [3]): 1.22
- Phage binding ELISA signal, Anti-PSMA Fab in presence of PSMA (PSMA Fab [4]): 0.0897

Binder: QLGACIPWWMCNGF [Phage-3863]
- Phage binding ELISA signal, Anti-PSMA Fab (Anti-PSMA Fab): 1.17

Binder: PQIKCIPAWMCDGF (tested as crude phage supernatant) [Phage-3875]
- phage binding ELISA signal (PSMA Fab [1]): 0.0851
- phage binding ELISA signal (PSMA Fab [2]): 1.14

Binder: LYEMCKPLWMCAGF [Phage-3842]
- Phage binding ELISA signal, Anti-PSMA Fab (PSMA Fab [3]): 1.22
- Phage binding ELISA signal, Anti-PSMA Fab in presence of PSMA (PSMA Fab [4]): 0.0737

Binder: IESICRPAWMCERL [Phage-3860]
- Phage binding ELISA signal, Anti-PSMA Fab (Anti-PSMA Fab): 1.17

Binder: SGLSCVPFWMCTGF [Phage-3845]
- Phage binding ELISA signal, Anti-PSMA Fab (PSMA Fab [3]): 1.21
- Phage binding ELISA signal, Anti-PSMA Fab in presence of PSMA (PSMA Fab [4]): 0.0662

Binder: YNQLCIPNWMCTGF [Phage-3846]
- Phage binding ELISA signal, Anti-PSMA Fab (PSMA Fab [3]): 1.21
- Phage binding ELISA signal, Anti-PSMA Fab in presence of PSMA (PSMA Fab [4]): 0.0729

Binder: VTPACMPRWMCEGF (tested as crude phage supernatant) [Phage-3879]
- phage binding ELISA signal (PSMA Fab [1]): 0.0611
- phage binding ELISA signal (PSMA Fab [2]): 1.13

Binder: EGILCKPSWMCNDF (tested as crude phage supernatant) [Phage-3871]
- phage binding ELISA signal (PSMA Fab [1]): 0.0803
- phage binding ELISA signal (PSMA Fab [2]): 1.15

Binder: ESKLCIPDWMCILL (tested as crude phage supernatant) [Phage-3881]
- phage binding ELISA signal (PSMA Fab [1]): 0.0662
- phage binding ELISA signal (PSMA Fab [2]): 1.13

Binder: VPRLCMPPWMCVGF [Phage-3848]
- Phage binding ELISA signal, Anti-PSMA Fab (PSMA Fab [3]): 1.21
- Phage binding ELISA signal, Anti-PSMA Fab in presence of PSMA (PSMA Fab [4]): 0.0968

Binder: LSWECVPQWMCTGL [Phage-3867]
- Phage binding ELISA signal, Anti-PSMA Fab (Anti-PSMA Fab): 1.16

Binder: PYSICKPDWMCTGL [Phage-3840]
- Phage binding ELISA signal, Anti-PSMA Fab (PSMA Fab (006 PSMA Fab) [5]): 1.22
- Phage binding ELISA signal, Anti-PSMA Fab in presence of PSMA (PSMA Fab (006 PSMA Fab) [6]): 0.0653

Binder: MDVWCVPQWMCDGF (tested as crude phage supernatant) [Phage-3882]
- phage binding ELISA signal (PSMA Fab [1]): 0.0645
- phage binding ELISA signal (PSMA Fab [2]): 1.12
